Source: the supplement of paper PMC9112550, “Optimization of the antimicrobial peptide Bac7 by deep mutational scanning” (BMC Biology, 2022)

test system: Escherichia coli TOP10; experiment: shrunken log2 fold change of peptide-encoding DNA abundance (4.5 h post-induction vs induction); higher = less antimicrobial activity (less host growth inhibition); details: time post-induction: 4.5 h; library: site-saturation at positions 5, 18, 19, 20
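Note: peptides expressed intracellularly from a pBAD plasmid library in pooled LB shake-flask culture, induced with 0.3% L-arabinose, DNA abundance read by NGS, three biological replicates, DESeq2 with apeglm shrinkage.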

Row | Sequence | shrunken log2 fold change
1 | RRIRLRPPRLPRPRPRPNLYPRP | -0.38
2 | RRIRLRPPRLPRPRPRPNMTPRP | -0.0555
3 | RRIRLRPPRLPRPRPRPNNEPRP | -0.276
4 | RRIRLRPPRLPRPRPRPNNPPRP | -0.157
5 | RRIRLRPPRLPRPRPRPNNQPRP | -0.287
6 | RRIRLRPPRLPRPRPRPNNWPRP | -0.275
7 | RRIRLRPPRLPRPRPRPNPSPRP | 0.104
8 | RRIRLRPPRLPRPRPRPNQGPRP | -0.148
9 | RRIRLRPPRLPRPRPRPNQQPRP | 0.0291
10 | RRIRLRPPRLPRPRPRPNQRPRP | 0.00956
11 | RRIRLRPPRLPRPRPRPNRHPRP | -0.312
12 | RRIRLRPPRLPRPRPRPNSNPRP | -0.335
13 | RRIRLRPPRLPRPRPRPNTWPRP | -0.245
14 | RRIRLRPPRLPRPRPRPNVEPRP | -0.211
15 | RRIRLRPPRLPRPRPRPNVLPRP | -0.304
16 | RRIRLRPPRLPRPRPRPNVVPRP | -0.19
17 | RRIRLRPPRLPRPRPRPNYAPRP | -0.0328
18 | RRIRLRPPRLPRPRPRPPAEPRP | 0.404
19 | RRIRLRPPRLPRPRPRPPANPRP | 0.592
20 | RRIRLRPPRLPRPRPRPPATPRP | 0.725
21 | RRIRLRPPRLPRPRPRPPDGPRP | 0.0617
22 | RRIRLRPPRLPRPRPRPPDRPRP | 0.467
23 | RRIRLRPPRLPRPRPRPPFLPRP | 0.105
24 | RRIRLRPPRLPRPRPRPPGGPRP | 0.664
25 | RRIRLRPPRLPRPRPRPPGYPRP | -0.119

Row | Sequence | shrunken log2 fold change
26 | RRIRLRPPRLPRPRPRPPNIPRP | -0.346
27 | RRIRLRPPRLPRPRPRPPPPPRP | 1.55
28 | RRIRLRPPRLPRPRPRPPQTPRP | 0.0847
29 | RRIRLRPPRLPRPRPRPPRLPRP | 0.46
30 | RRIRLRPPRLPRPRPRPPRRPRP | 0.746
31 | RRIRLRPPRLPRPRPRPPSPPRP | 0.58
32 | RRIRLRPPRLPRPRPRPPTCPRP | 0.192
33 | RRIRLRPPRLPRPRPRPPTWPRP | 0.169
34 | RRIRLRPPRLPRPRPRPPWLPRP | 0.439
35 | RRIRLRPPRLPRPRPRPQAEPRP | 0.0388
36 | RRIRLRPPRLPRPRPRPQAGPRP | -0.0299
37 | RRIRLRPPRLPRPRPRPQAKPRP | -0.0308
38 | RRIRLRPPRLPRPRPRPQDWPRP | -0.104
39 | RRIRLRPPRLPRPRPRPQFLPRP | -0.0896
40 | RRIRLRPPRLPRPRPRPQHSPRP | -0.337
41 | RRIRLRPPRLPRPRPRPQLLPRP | -0.0176
42 | RRIRLRPPRLPRPRPRPQLNPRP | -0.214
43 | RRIRLRPPRLPRPRPRPQLSPRP | -0.0956
44 | RRIRLRPPRLPRPRPRPQMFPRP | -0.427
45 | RRIRLRPPRLPRPRPRPQMKPRP | -0.0293
46 | RRIRLRPPRLPRPRPRPQMNPRP | -0.507
47 | RRIRLRPPRLPRPRPRPQNVPRP | -0.523
48 | RRIRLRPPRLPRPRPRPQPGPRP | 0.0607
49 | RRIRLRPPRLPRPRPRPQPVPRP | 0.0205
50 | RRIRLRPPRLPRPRPRPQQNPRP | -0.241

Row | Sequence | shrunken log2 fold change
51 | RRIRLRPPRLPRPRPRPQRSPRP | 0.16
52 | RRIRLRPPRLPRPRPRPQSGPRP | -0.0923
53 | RRIRLRPPRLPRPRPRPQSHPRP | -0.349
54 | RRIRLRPPRLPRPRPRPQSWPRP | -0.0792
55 | RRIRLRPPRLPRPRPRPQTEPRP | -0.0579
56 | RRIRLRPPRLPRPRPRPQTNPRP | -0.497
57 | RRIRLRPPRLPRPRPRPQTTPRP | -0.152
58 | RRIRLRPPRLPRPRPRPQVFPRP | 0.502
59 | RRIRLRPPRLPRPRPRPQWQPRP | 0.0949
60 | RRIRLRPPRLPRPRPRPQWRPRP | 0.087
61 | RRIRLRPPRLPRPRPRPQYWPRP | -0.275
62 | RRIRLRPPRLPRPRPRPRCVPRP | 0.0662
63 | RRIRLRPPRLPRPRPRPRDIPRP | -0.54
64 | RRIRLRPPRLPRPRPRPRDMPRP | 0.00118
65 | RRIRLRPPRLPRPRPRPREEPRP | -0.0235
66 | RRIRLRPPRLPRPRPRPRFYPRP | 0.074
67 | RRIRLRPPRLPRPRPRPRGGPRP | 0.515
68 | RRIRLRPPRLPRPRPRPRGVPRP | 0.494
69 | RRIRLRPPRLPRPRPRPRHYPRP | -0.127
70 | RRIRLRPPRLPRPRPRPRLPPRP | 0.149
71 | RRIRLRPPRLPRPRPRPRNRPRP | 0.267
72 | RRIRLRPPRLPRPRPRPRRMPRP | 0.053
73 | RRIRLRPPRLPRPRPRPRRTPRP | 0.354
74 | RRIRLRPPRLPRPRPRPRSDPRP | 0.126
75 | RRIRLRPPRLPRPRPRPRSQPRP | 0.19

Row | Sequence | shrunken log2 fold change
76 | RRIRLRPPRLPRPRPRPRTNPRP | 0.113
77 | RRIRLRPPRLPRPRPRPRVWPRP | 0.655
78 | RRIRLRPPRLPRPRPRPRWAPRP | 0.145
79 | RRIRLRPPRLPRPRPRPRWCPRP | -0.0806
80 | RRIRLRPPRLPRPRPRPRWKPRP | 0.191
81 | RRIRLRPPRLPRPRPRPSAHPRP | 0.0318
82 | RRIRLRPPRLPRPRPRPSDFPRP | -0.131
83 | RRIRLRPPRLPRPRPRPSDTPRP | -0.142
84 | RRIRLRPPRLPRPRPRPSENPRP | 0.124
85 | RRIRLRPPRLPRPRPRPSFEPRP | 0.0552
86 | RRIRLRPPRLPRPRPRPSFYPRP | -0.7
87 | RRIRLRPPRLPRPRPRPSGRPRP | 0.448
88 | RRIRLRPPRLPRPRPRPSHHPRP | -0.319
89 | RRIRLRPPRLPRPRPRPSIAPRP | -0.217
90 | RRIRLRPPRLPRPRPRPSKCPRP | -0.0487
91 | RRIRLRPPRLPRPRPRPSKPPRP | -0.0779
92 | RRIRLRPPRLPRPRPRPSMQPRP | -0.205
93 | RRIRLRPPRLPRPRPRPSMSPRP | 0.221
94 | RRIRLRPPRLPRPRPRPSNCPRP | -0.581
95 | RRIRLRPPRLPRPRPRPSNWPRP | -0.196
96 | RRIRLRPPRLPRPRPRPSPEPRP | 0.00229
97 | RRIRLRPPRLPRPRPRPSPLPRP | -0.192
98 | RRIRLRPPRLPRPRPRPSPNPRP | -0.183
99 | RRIRLRPPRLPRPRPRPSRAPRP | 0.0241
100 | RRIRLRPPRLPRPRPRPSRFPRP | -0.211

Row | Sequence | shrunken log2 fold change
101 | RRIRLRPPRLPRPRPRPSRGPRP | 0.0578
102 | RRIRLRPPRLPRPRPRPSSAPRP | -0.0182
103 | RRIRLRPPRLPRPRPRPSTSPRP | -0.0196
104 | RRIRLRPPRLPRPRPRPSTTPRP | -0.347
105 | RRIRLRPPRLPRPRPRPSVAPRP | -0.0589
106 | RRIRLRPPRLPRPRPRPSVHPRP | -0.61
107 | RRIRLRPPRLPRPRPRPSWIPRP | -0.131
108 | RRIRLRPPRLPRPRPRPSYLPRP | -0.659
109 | RRIRLRPPRLPRPRPRPSYQPRP | -0.255
110 | RRIRLRPPRLPRPRPRPTAMPRP | 0.0595
111 | RRIRLRPPRLPRPRPRPTCYPRP | -0.371
112 | RRIRLRPPRLPRPRPRPTDCPRP | -0.197
113 | RRIRLRPPRLPRPRPRPTEEPRP | -0.0651
114 | RRIRLRPPRLPRPRPRPTHTPRP | -0.158
115 | RRIRLRPPRLPRPRPRPTISPRP | -0.375
116 | RRIRLRPPRLPRPRPRPTIWPRP | 0.203
117 | RRIRLRPPRLPRPRPRPTKWPRP | -0.0762
118 | RRIRLRPPRLPRPRPRPTLMPRP | 0.0897
119 | RRIRLRPPRLPRPRPRPTPEPRP | 0.181
120 | RRIRLRPPRLPRPRPRPTPMPRP | 0.143
121 | RRIRLRPPRLPRPRPRPTPNPRP | 0.403
122 | RRIRLRPPRLPRPRPRPTQEPRP | 0.0081
123 | RRIRLRPPRLPRPRPRPTQMPRP | 0.333
124 | RRIRLRPPRLPRPRPRPTRGPRP | 0.298
125 | RRIRLRPPRLPRPRPRPTRNPRP | 0.24

Row | Sequence | shrunken log2 fold change
126 | RRIRLRPPRLPRPRPRPTTLPRP | 0.0342
127 | RRIRLRPPRLPRPRPRPTWNPRP | -0.114
128 | RRIRLRPPRLPRPRPRPVAIPRP | 0.0902
129 | RRIRLRPPRLPRPRPRPVCTPRP | -0.0517
130 | RRIRLRPPRLPRPRPRPVCYPRP | -0.156
131 | RRIRLRPPRLPRPRPRPVDNPRP | -0.491
132 | RRIRLRPPRLPRPRPRPVEEPRP | 0.21
133 | RRIRLRPPRLPRPRPRPVEWPRP | -0.228
134 | RRIRLRPPRLPRPRPRPVEYPRP | -0.294
135 | RRIRLRPPRLPRPRPRPVGHPRP | 0.306
136 | RRIRLRPPRLPRPRPRPVHCPRP | -0.11
137 | RRIRLRPPRLPRPRPRPVHMPRP | -0.0691
138 | RRIRLRPPRLPRPRPRPVINPRP | -0.686
139 | RRIRLRPPRLPRPRPRPVIRPRP | -0.502
140 | RRIRLRPPRLPRPRPRPVKKPRP | 0.031
141 | RRIRLRPPRLPRPRPRPVKNPRP | -0.176
142 | RRIRLRPPRLPRPRPRPVLPPRP | -0.0546
143 | RRIRLRPPRLPRPRPRPVLRPRP | -0.113
144 | RRIRLRPPRLPRPRPRPVLYPRP | -0.239
145 | RRIRLRPPRLPRPRPRPVNWPRP | 0.0772
146 | RRIRLRPPRLPRPRPRPVPCPRP | -0.239
147 | RRIRLRPPRLPRPRPRPVPIPRP | 0.125
148 | RRIRLRPPRLPRPRPRPVPQPRP | 0.238
149 | RRIRLRPPRLPRPRPRPVQFPRP | -0.38
150 | RRIRLRPPRLPRPRPRPVQWPRP | 0.288
